Here are results for two molecules from patent US20260209320A1 (ALCHEMAB THERAPEUTICS, published 2026).

Test [1] deals with T1, Peptide 20 (cyno).
T1 peptide: QAQPMLPQPQPPPPP
As to the kind of experiment: peptide microarray; Sp C1; IgG 1 µg/ml.

Test [2] concerns the target T1, Peptide 20. As to the kind of experiment: peptide microarray; Sp C1; IgG 10 µg/ml.
In test [3] the target is T2, Peptide 33 (mouse).
T2 peptide: QQQQPPPQAPPPPPP
Put plainly: peptide microarray; Sp M; IgG 1 µg/ml.

Test [4] deals with T3, Peptide 43 (mouse).
T3 peptide: QPPPQGQPPPPPPPL
As to the kind of experiment: peptide microarray; Sp M; IgG 1 µg/ml.

The target of test [5] is T4, Peptide 37 (mouse).
T4 peptide: PPPQAPPPPPPPPPP
Put plainly: peptide microarray; Sp M; IgG 1 µg/ml.

The target of test [6] is T5, Peptide 44 (mouse).
T5 peptide: PPPQGQPPPPPPPLP
As to the kind of experiment: peptide microarray; Sp M; IgG 1 µg/ml.

For test [7], the target named is T6, Peptide 34 (mouse).
T6 peptide: QQQPPPQAPPPPPPP
As to the kind of experiment: peptide microarray; Sp M; IgG 1 µg/ml.

Test [8] concerns the target T7, Peptide 35 (mouse).
T7 peptide: QQPPPQAPPPPPPPP
Put plainly: peptide microarray; Sp M; IgG 1 µg/ml.

Test [9] has as its target T8, Peptide 39 (mouse).
T8 peptide: PQAPPPPPPPPPPQP
As to the kind of experiment: peptide microarray; Sp M; IgG 1 µg/ml.

The target in test [10] is T9, Peptide 32 (mouse).
T9 peptide: QQQQQPPPQAPPPPP
As to the kind of experiment: peptide microarray; Sp M; IgG 1 µg/ml.

Test [11] deals with T10, Peptide 40 (mouse).
T10 peptide: QAPPPPPPPPPPQPP
As to the kind of experiment: peptide microarray; Sp M; IgG 1 µg/ml.

Test [12] concerns the target T11, Peptide 42 (mouse).
T11 peptide: PQPPPQGQPPPPPPP
As to the kind of experiment: peptide microarray; Sp M; IgG 1 µg/ml.

The target of test [13] is T12, Peptide 38 (mouse).
T12 peptide: PPQAPPPPPPPPPPQ
Put plainly: peptide microarray; Sp M; IgG 1 µg/ml.

Test [14] addresses T13, Peptide 36 (mouse).
T13 peptide: QPPPQAPPPPPPPPP
Put plainly: peptide microarray; Sp M; IgG 1 µg/ml.

The target of test [15] is T14, Peptide 14 (human, cyno).
T14 peptide: PQPQPPPPPPPPPPG
As to the kind of experiment: peptide microarray; Sp H; IgG 10 µg/ml.

The target in test [16] is T15, Peptide 6 (human).
T15 peptide: QQPPPPPPPPPPPQL
Put plainly: peptide microarray; Sp H; IgG 10 µg/ml.

Test [17] addresses T16, Peptide 15 (human, cyno).
T16 peptide: QPQPPPPPPPPPPGP
Put plainly: peptide microarray; Sp H; IgG 10 µg/ml.

Test [18] has as its target T14, Peptide 14. Put plainly: peptide microarray; Sp H; IgG 1 µg/ml.
The target of test [19] is T15, Peptide 6. As to the kind of experiment: peptide microarray; Sp H; IgG 1 µg/ml.
Test [20] addresses T16, Peptide 15. Put plainly: peptide microarray; Sp H; IgG 1 µg/ml.
Test [21] concerns the target T14, Peptide 14. Put plainly: peptide microarray; Sp C2; IgG 10 µg/ml.
For test [22], the target named is T16, Peptide 15. Put plainly: peptide microarray; Sp C2; IgG 10 µg/ml.
Test [23] concerns the target T14, Peptide 14. Put plainly: peptide microarray; Sp C2; IgG 1 µg/ml.
The target of test [24] is T17, Peptide 1 (human, cyno).
T17 peptide: QQQQQQQQPPPPPPP
Put plainly: peptide microarray; Sp C2; IgG 1 µg/ml.

For test [25], the target named is T18, Peptide 28 (cyno).
T18 peptide: QPMLPQPQPPPPPPP
As to the kind of experiment: peptide microarray; Sp C2; IgG 1 µg/ml.

Test [26] concerns the target T19, Peptide 31 (cyno).
T19 peptide: LPQPQPPPPPPPPPP
As to the kind of experiment: peptide microarray; Sp C2; IgG 1 µg/ml.

For test [27], the target named is T20, Peptide 29 (cyno).
T20 peptide: PMLPQPQPPPPPPPP
As to the kind of experiment: peptide microarray; Sp C2; IgG 1 µg/ml.

The target of test [28] is T16, Peptide 15. As to the kind of experiment: peptide microarray; Sp C2; IgG 1 µg/ml.
Test [29] concerns the target T21, Peptide 41 (mouse).
T21 peptide: PPQPPPQGQPPPPPP
As to the kind of experiment: peptide microarray; Sp M; IgG 10 µg/ml.

Test [30] addresses T21, Peptide 41. As to the kind of experiment: peptide microarray; Sp M; IgG 1 µg/ml.
The target in test [31] is T22, Peptide 23 (cyno).
T22 peptide: QQQQQQQQQQPPPPP
As to the kind of experiment: peptide microarray; Sp C2; IgG 10 µg/ml.

The target of test [32] is T22, Peptide 23. Put plainly: peptide microarray; Sp C2; IgG 1 µg/ml.

B1: ATL_0005335 (antibody, V domains shown)
VH: EVQLVESGGGLVKPGGSLRLSCAASGFTFNKAWMNWVRQAPGKGLEWVGRIKSGIDGGTTDYAAPVQGRFTISRDDSKNTVYLQMNSLNTEDTAVYYCIPPPYYYYYGLDVWGQGTTVTVSS
VL: QSALTQPASVSGSPGQSITISCTGTSSDIGSYNLVSWYQQHPGNAPKPLIYEGSKRPSGVSARFSGSKSGNTASLTISGLQPEDEADYYCSSYAGFNTLVFGGGTKVTVL
notes: human IgG1; also called ATL_5335
On to B1, for which the corrected fluorescence intensity in test [1] stood at 187; in test [2], 1190; in test [3], 600; in test [4], 120; in test [5], 742; in test [6], 143. Moreover, the corrected fluorescence intensity in [7] was 754; in test [8], 758; in [9] it was 0; in test [10] it was 0; in test [11], 0; in [12], 612. The corrected fluorescence intensity in test [13] came to 194; in test [14], 778; in test [15] it was 1630; in test [16], 176; in [17], 1130; in [18] it was 335. Besides, the corrected fluorescence intensity in test [19] is 0; in test [20] it was 234; in [21] it was 0; in [22] it was 0; in test [23], 0; in test [24] it was 990. Further, the corrected fluorescence intensity was determined as 421 in test [25], 1000 in test [26], 523 in test [27] and 0 in test [28].

B2: ATL_0005331 (antibody, V domains shown)
VH: B1 VH
VL: QSALTQPRSVSGSPGQSITISCTGTSSDVGSYNLVSWFQQHPGKAPKLIIYEVNKRPSGVPDRFSGSKSGNTASLTVSGLQAEDEADYYCGSYAGTNNVFGTGTKLTVL
notes: human IgG1; also called ATL_5331; Human IgG1 ATL_0005331
For B2, the corrected fluorescence intensity in [29] came out at 197; in [3], 0; in test [4], 14.5; in test [5], 180; in test [6] it was 0; in test [7], 162. Besides, the corrected fluorescence intensity in test [8] was found to be 181; in test [30] it was 55; in [9] it was 0; in test [10], 0; in test [11], 0; in test [12], 41.5. Further, the corrected fluorescence intensity is 0 in [13]; 190 in test [14]; 148 in test [31]; 259 in [24]; 152 in [25]; 294 in test [26]. The figures for the corrected fluorescence intensity in test [27] and in test [32] were 156 and 0, respectively.
